The supplement of paper PMC10057847, “Precision engineering of biological function with large-scale measurements and machine learning” (PLOS ONE, 2023)
± gives the uncertainty stated by the source.

B1: library; the commonest letter at each place (parent)
chain: MKPVTLYDVAEYAGVSYQTVSRVVNQASHVSAKTREKVEAAMAELNYIPNRVAQQLAGKQSLLIGVATSSLALHAPSQIVAAIKSRADQLGASVVVSMVERSGVEACKAAVHNLLAQRVSGLIINYPLDDQDAIAVEAACTNVPALFLDVSDQTPINSIIFSHEDGTRLGVEHLVALGHQQIALLAGPLSSVSARLRLAGWHKYLTRNQIQPIAEREGDWSAMSGFQQTMQMLNEGIVPTAMLVANDQMALGAMRAITESGLRVGADISVVGYDDTEDSSCYIPPLTTIKQDFRLLGQTSVDRLLQLSQGQAVKGNQLLPVSLVKRKTTLAPNTQTASPRALADSLMQLARQVSRLESGQ

Columns and labels:
Settings in all cases: with IPTG
[1] = variants of: B1
Protocol: (§1)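 LacI variants on the pVER plasmid regulate eYFP behind lacO in E. coli MG1655Δlac, grown in rich M9 at 37 °C with a 2-fold IPTG dilution series. After two 160-min growth steps, YFP is read by flow cytometry and calibrated to MEF. Bayesian MCMC fits of the Hill equation give G0, G∞, EC50 and n (posterior mean ± SD).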

[2] = variants of: B1; test: Hill coefficient n (dimensionless); higher = steeper dose response
Protocol: as §1

[3] = variants of: B1; test: basal output G0 (YFP, no IPTG) (log10 MEF); higher = higher reporter expression without inducer
Protocol: as §1

[4] = variants of: B1; test: saturating output G-infinity (YFP) (log10 MEF); higher = higher reporter expression at saturating IPTG
Protocol: as §1

Variant	EC50 for IPTG (log10 µmol/L) [1]	Hill coefficient n [2]	basal output G0 (log10) [3]	saturating output G-infinity (log10) [4]
L169P	2.678 ± 0.026	1.34 ± 0.061	2.72 ± 0.067	4.3 ± 0.0095
D88Y A241V N246S L305M L319F P339T A341T L346S	2.73 ± 0.1	0.483 ± 0.058	4.455 ± 0.018	2.91 ± 1.1
V96M	2.315 ± 0.015	1.46 ± 0.048	1.73 ± 0.53	4.175 ± 0.006
L90Q R101G C140G L169Q K290I T329S	1.57 ± 0.01	1.54 ± 0.041	3.06 ± 0.033	4.4822 ± 0.004
V301M	1.82 ± 0.049	1.53 ± 0.16	2.32 ± 0.83	4.469 ± 0.021
S190C	2.091 ± 0.0053	1.65 ± 0.019	2.31 ± 0.049	4.4474 ± 0.0025
V94M S190C G200A Q209R R263H Q317L	1.44 ± 0.025	1.4 ± 0.072	3.418 ± 0.023	4.454 ± 0.0086
G91D V94A R101G S158C T167M E172D A176S F226Y T276S T299A	2.31 ± 0.027	1.25 ± 0.063	4.329 ± 0.0062	3.63 ± 0.0095
Q317L	2.051 ± 0.0097	1.66 ± 0.041	2.08 ± 0.5	4.4477 ± 0.0044
Q291L	2.064 ± 0.017	1.61 ± 0.052	2.22 ± 0.21	4.407 ± 0.0075
V136E F161V	3.713 ± 0.031	1.84 ± 0.2	4.516 ± 0.0031	4.229 ± 0.011
A194V	3.35 ± 0.048	1.61 ± 0.06	2.01 ± 0.08	4.322 ± 0.041
Q89L S158C E172K Q291H	2.457 ± 0.021	1.33 ± 0.04	3.336 ± 0.007	4.341 ± 0.0086
S120G M223L F226L L319F R355L	2.248 ± 0.015	1.51 ± 0.035	2.781 ± 0.021	4.407 ± 0.0067
S97T F161V	2.22 ± 0.032	1.59 ± 0.087	2.49 ± 0.21	4.47 ± 0.016
V95M A337T	2.109 ± 0.018	1.59 ± 0.082	2.13 ± 0.64	4.23 ± 0.0081
I160N Q231H I289V D302E	2.6 ± 0.026	1.67 ± 0.073	2.06 ± 0.43	4.284 ± 0.015
V136E L169P	4.914 ± 0.028	2.33 ± 0.32	4.5429 ± 0.0026	1.85 ± 1.1
A138T A214V V244L	1.808 ± 0.0078	1.61 ± 0.025	2.43 ± 0.047	4.4294 ± 0.0033
V96E T154I S158R V238D M254I V264I	2.37 ± 0.029	1.37 ± 0.067	4.479 ± 0.01	3.19 ± 0.03
Q231R	2.063 ± 0.0082	1.67 ± 0.03	2.29 ± 0.081	4.3759 ± 0.0039
S97T G200C	2.162 ± 0.012	1.65 ± 0.041	2.68 ± 0.043	4.442 ± 0.0057
S97T	1.59 ± 0.023	1.58 ± 0.067	2.61 ± 0.16	4.572 ± 0.01
D130E	1.902 ± 0.012	1.76 ± 0.057	2.29 ± 0.45	4.467 ± 0.0052
K203N D278V S280L I283V	1.8 ± 0.022	1.73 ± 0.085	3.192 ± 0.021	4.401 ± 0.009
N113D D132N T154R M242I V313A K314N R340S	2.033 ± 0.011	1.64 ± 0.048	1.59 ± 0.65	4.226 ± 0.0048
N125D	2.739 ± 0.019	1.27 ± 0.038	2.73 ± 0.035	4.445 ± 0.0072
